The values below come from IntAct's records for PubMed 16951355.

B1: ICOS ligand (Homo sapiens), O75144 (parent)
chain: MRLGSPGLLFLLFSSLRADTQEKEVRAMVGSDVELSCACPEGSRFDLNDVYVYWQTSESKTVVTYHIPQNSSLENVDSRYRNRALMSPAGMLRGDFSLRLFNVTPQDEQKFHCLVLSQSLGFQEVLSVEVTLHVAANFSVPVVSAPHSPSQDELTFTCTSINGYPRPNVYWINKTDNSLLDQALQNDTVFLNMRGLYDVVSVLRIARTPSVNIGCCIENVLLQQNLTVGSQTGNDIGERDKITENPVSTGEKNAATWSILAVLCLLVVVAVAIGWVCRDRCLQHSYAGAWAVSPETELTGHV

Variants of B1 are the subject of the experiment. As to conditions: with icos_human ICOS.
On to L114A, for which the “effect of a mutation on the interaction” value was “decreasing interaction strength”. As for N70Q, the “effect of a mutation on the interaction” value was “with no effect”. The result for Y51F reads “decreasing interaction strength”; that for Y51A, “disrupting interaction strength”; that for T61A, “with no effect”.

Take N137Q: the “effect of a mutation on the interaction” value is reported as “with no effect”. With S87A, the “effect of a mutation on the interaction” value was “with no effect”. Regarding F138A, the “effect of a mutation on the interaction” value is “with no effect”. Under D77A stands “with no effect”; under T64A, “with no effect”; under L47A, “with no effect”. For G121A, the “effect of a mutation on the interaction” value is listed as “with no effect”. On to Q55A, for which the “effect of a mutation on the interaction” value is listed as “decreasing interaction strength”. Under S59A stands “with no effect”; under V143A, “with no effect”; under Q123A, “with no effect”.

With P141A, the “effect of a mutation on the interaction” value was “with no effect”. The result for N102Q reads “decreasing interaction strength”. As to E124A, the “effect of a mutation on the interaction” value is recorded as “decreasing interaction strength”. Under N225Q stands “with no effect”; under L98A, “with no effect”. Under F122A stands “disrupting interaction strength”; under L120A, “decreasing interaction strength”; under H66A, “decreasing interaction strength”. The result for V62A reads “decreasing interaction strength”; that for G195A, “with no effect”; that for Y80A, “disrupting interaction strength”. Consider Q55A;V62A, for which the “effect of a mutation on the interaction” value is reported as “disrupting interaction strength”. Regarding V76A, the “effect of a mutation on the interaction” value is “decreasing interaction strength”.

In the case of L196A, the “effect of a mutation on the interaction” value is “with no effect”.

N186Q: the “effect of a mutation on the interaction” value is listed as “with no effect”. The result for Y53F reads “disrupting interaction strength”; that for Y53A, “disrupting interaction strength”.
